Columns and labels:
[1] = molecular target: Receptor comprising gp130 (B10G) and LIF-R (pHLIFR-65) co-expressed on COS-7 cells (human); test: Scatchard analysis of 125I-oncostatin M binding to COS-7 cells co-transfected with B10G and pHLIFR-65 (curve A of FIG. 2), phthalate oil separation
[2] = molecular target: High affinity oncostatin M receptors on non-transfected COS-7 cells; test: Scatchard analysis of 125I-oncostatin M binding to non-transfected COS-7 cells (FIG. 3 experiment), phthalate oil separation
[3] = molecular target: T1, Human gp130 encoded by plasmid B10G, expressed on COS-7 cells (human); test: Scatchard analysis of 125I-oncostatin M binding to COS-7 cells transfected with B10G alone (FIG. 3 experiment), phthalate oil separation
T1 sequence: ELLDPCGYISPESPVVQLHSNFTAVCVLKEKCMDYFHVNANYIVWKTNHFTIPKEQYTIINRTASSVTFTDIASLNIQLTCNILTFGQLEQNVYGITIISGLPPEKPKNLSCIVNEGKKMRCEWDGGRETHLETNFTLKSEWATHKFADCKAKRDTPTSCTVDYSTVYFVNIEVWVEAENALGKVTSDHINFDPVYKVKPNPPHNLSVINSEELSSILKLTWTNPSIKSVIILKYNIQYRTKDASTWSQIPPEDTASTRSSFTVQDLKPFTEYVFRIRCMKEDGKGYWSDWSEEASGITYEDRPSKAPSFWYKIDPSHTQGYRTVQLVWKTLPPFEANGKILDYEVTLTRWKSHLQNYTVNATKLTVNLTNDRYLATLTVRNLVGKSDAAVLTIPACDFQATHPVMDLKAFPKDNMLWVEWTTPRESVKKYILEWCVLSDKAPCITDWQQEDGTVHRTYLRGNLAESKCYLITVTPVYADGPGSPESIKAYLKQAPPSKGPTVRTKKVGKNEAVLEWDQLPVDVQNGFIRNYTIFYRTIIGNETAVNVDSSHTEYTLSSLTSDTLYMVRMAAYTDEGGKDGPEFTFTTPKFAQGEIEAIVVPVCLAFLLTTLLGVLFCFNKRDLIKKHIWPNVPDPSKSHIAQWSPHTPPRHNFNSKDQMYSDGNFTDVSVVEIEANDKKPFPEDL

B1: Oncostatin M (ligand, UniProt P13725 26-221, looked up, species assumed)
Oncostatin-M: AAIGSCSKEYRVLLGQLQKQTDLMQDTSRLLDPYIRIQGLDVPKLREHCRERPGAFPSEETLRGLGRRGFLQTLNATLGCVLHRLADLEQRLPKAQDLERSGLNIEDLEKLQMARPNILGLRNNIYCMAQLLDNSDTAEPTKAGRGASQPPTPTPASDAFQRKLEGCRFLHGYHRFMHSVGRVFSKWGESPNRSRR
modifications: 125I label in some uses
[1]
  Kd: 240 pM
[2]
  Kd: 360 pM
[3]
  Kd: 7700 pM

Source: patent US5262522
